Experimental data from PMC7162832, “An unusual metal-bound 4-fluorothreonine transaldolase from Streptomyces sp. MA37 catalyses promiscuous transaldol reactions” (Applied Microbiology and Biotechnology, 2020).

Key:
[1] = molecular target: 4-fluorothreonine transaldolase from Streptomyces sp. MA37 (Streptomyces sp. MA37) (UniProt W0W999); assay: SEC; ENrich High-Resolution Size Exclusion Column (Bio-Rad, 25 mL), isocratic elution; oligomeric state estimated from the retention time
[2] = molecular target: T1, FTaseMA (Streptomyces sp. MA37, UniProt W0W903); assay: biochemical; design: gene flFT1
Description: acetaldehyde release, DNPH derivatisation and HPLC on FTaseMA

[3] = molecular target: T1, FTaseMA; assay: DNPH derivatisation and HPLC; format: biochemical; design: gene flFT1; full-length (SHMT-like S domain plus aldolase-like A domain), N-His6, from MA37 genomic DNA in pGM1190 (pMBC001), expressed in Streptomyces lividans 66; dimer
[4] = test system: CC(C)C=O; assay: purified protein; conditions: L-threonine 5 mM, PLP 0.1 mM, Tris-HCl pH 7.5
[5] = test system: O=CCCl; assay: purified protein; conditions: L-threonine 5 mM, PLP 0.1 mM, Tris-HCl pH 7.5
[6] = test system: O=CCF; assay: purified protein; conditions: apparent, FAd 0.12-2.4 mM, L-threonine 20 mM (methods: 0.5-20 mM aldehyde, 5 mM L-Thr), PLP 0.1 mM, Tris-HCl pH 7.5
[7] = test system: O=CCc1ccccc1; assay: purified protein; conditions: L-threonine 5 mM, PLP 0.1 mM, Tris-HCl pH 7.5

**Q.** With “4-fluorothreonine transaldolase from Streptomyces sp. MA37 (from UniProt W0W999 1-299) (enzyme)” as the compound, how does the stoichiometry N [1] read?
**A.** 2

**Q.** With `C[C@@H](O)[C@H](N)C(=O)O` [compound 6, L-threonine] as the compound, how does the Km [2] read?
**A.** 1.18 ± 0.007 mM

**Q.** `O=CCO` [compound 9, glycolaldehyde] was tested. Which Km [3] did it give?
**A.** 357 ± 10 µM

**Q.** `CCC=O` [compound 11, propanal] was tested. Which Km [3] did it give?
**A.** 1450 ± 179 µM

**Q.** How did the Km [2] turn out when `C[C@H](O)[C@H](N)C(=O)O` [compound 19, L-allo-threonine] was run?
**A.** 1.18 ± 0.006 mM

**Q.** How did the Km [4] turn out when FTaseMA (Streptomyces sp. MA37) was run?
**A.** 0.535 ± 0.078 mM

**Q.** What about the kcat [4] of the same compound?
**A.** 0.0135 s⁻¹

**Q.** And the kcat/Km [4]?
**A.** 25.4 M⁻¹ s⁻¹

**Q.** And the Km [5]?
**A.** 1.350 ± 0.001 mM

**Q.** What about the kcat [5] of the same compound?
**A.** 0.0238 s⁻¹

**Q.** What about the kcat/Km [5] of the same compound?
**A.** 17.6 M⁻¹ s⁻¹

**Q.** And the Km [6]?
**A.** 0.241 ± 0.002 mM

**Q.** What about the kcat [6] of the same compound?
**A.** 0.03 s⁻¹

**Q.** What about the kcat/Km [6] of the same compound?
**A.** 125 M⁻¹ s⁻¹

**Q.** What about the Km [7] of the same compound?
**A.** 0.358 ± 0.006 mM

**Q.** And the kcat [7]?
**A.** 0.00975 s⁻¹

**Q.** What about the kcat/Km [7] of the same compound?
**A.** 27.2 M⁻¹ s⁻¹
